Our source for the binding result and Kd values is publication PMC11966256.

Data set [1] deals with HsLARP6(73-183) La domain (Homo sapiens, UniProt Q9BRS8). The data set can be described thus: analytical SEC.
For data set [2], the target named is HsLARP6(84-183) La domain (Homo sapiens, UniProt Q9BRS8). The data set can be described thus: analytical SEC.
In data set [3] the target is Cy5-HsLARP6(73-183)G74C La domain (Homo sapiens, UniProt Q9BRS8, G74C). The data set can be described thus: MST.

One may read the Kd as the free concentration of one partner at which half of the binding sites on the other are occupied at equilibrium, for simple one-to-one binding. A lower Kd goes with higher affinity.

Take GGCACAAGGAGUCUGCAUGUCUAAGUGCUAGACAUGCUCAGCUUUGUG (structured_RNA) [5'SL RNA (a2(I)), 48 nt]: the binding result in data set [1] and in data set [2] was “binds” throughout. In addition, the Kd in data set [3] was 4.87 ± 0.15 nM.
